Test results reported in the supplement of paper PMC11246515.
± gives the standard deviation of the averaged measurements.

Assay: total protein half-life in vivo (active degradation + dilution); higher = more stable protein
[1] = E. coli NCM3722 delta-clpP delta-lon delta-hslV, growth: N-lim chemostat, doubling time 6 h
[2] = E. coli NCM3722 delta-clpP, growth: N-lim chemostat, doubling time 6 h
[3] = E. coli NCM3722 delta-hslV, growth: N-lim chemostat, doubling time 6 h
[4] = E. coli NCM3722 delta-lon, growth: N-lim chemostat, doubling time 6 h
[5] = E. coli NCM3722 delta-smpB, growth: N-lim chemostat, doubling time 6 h
[6] = wild type E. coli NCM3722, growth: C-lim chemostat, doubling time 3 h
[7] = wild type E. coli NCM3722, growth: C-lim chemostat, doubling time 6 h
[8] = wild type E. coli NCM3722, growth: C-lim chemostat, doubling time 12 h
[9] = wild type E. coli NCM3722, growth: N-lim chemostat, doubling time 6 h
[10] = wild type E. coli NCM3722, growth: N-lim chemostat, doubling time 12 h
[11] = wild type E. coli NCM3722, growth: P-lim chemostat, doubling time 6 h
[12] = wild type E. coli NCM3722, growth: P-lim chemostat, doubling time 12 h

Sequence	total protein half-life in vivo [1] [h]	total protein half-life in vivo [2] [h]	total protein half-life in vivo [3] [h]	total protein half-life in vivo [4] [h]	total protein half-life in vivo [5] [h]	total protein half-life in vivo [6] [h]	total protein half-life in vivo [7] [h]	total protein half-life in vivo [8] [h]	total protein half-life in vivo [9] [h]	total protein half-life in vivo [10] [h]	total protein half-life in vivo [11] [h]	total protein half-life in vivo [12] [h]
MKAFNKLFSLVVASVLVFSLAGCGDKEESKKFSANLNGTEIAITYVYKGDKVLKQSSETKIQFASIGATTKEDAAKTLEPLSAKYKNIAGVEEKLTYTDTYAQENVTIDMEKVDFKALQGISGINVSAEDAKKGITMAQMELVMKAAGFKEVK	5.1	5.39	5.31	5.76 ± 0.26	4.61 ± 0.12	2.68	4.07 ± 0.38	7.55	5.76 ± 0.11	9.71 ± 1.6	5.3	–
MKAIDNQIRNISSSHQDKHSDKVNSHQHHGKVDKTHRAKIVEFDKLDNDSQIDNDFGLHIIYFLQHGHWKVNDRSHQMEKVWFYNSEPSIDIQEYNRFADNTTDTFIFTIIPDNNHVLKLSSPITVTVECKGGYYFINSSGDKSDIIYKVDGLSIIARNFFTLLSGNFKPDWRWDVSKETFTKEKFDSYVKSVFSKIDFYKQCGVINPQNANTAYFGDTDGRVGAVLYALLVSGHIGIREKGWSLLCELLKHEEMASSAYKHKNNKVLYDLLNTRDMILNELHQHVFLKDDAITPCIFLGDHTGDRFSTIFGDKYILTLLNSMRNMEGNKDSRINKNVVVLAGNHEINFNGNYTARLANHKLSAGDTYNLIKTLDVCNYDSERQVLTSHHGIIRDEEKKCYCLGALQVPFNQMKNPTDPEELANIFNKKHKEHMDDPLFHLIRSNTLKPTPVYANYFDNTTDFRPARERIFICGETLKGEDPSKYIRQKYGHHGPGVDHNQQFDNGIMGLNSLKEARDKNNKIIYSSGLSCFQLH	–	2.18 ± 0.21	2.35 ± 0.097	2.82	2.53	2.6 ± 0.029	4.34 ± 0.27	6	2.27 ± 0.28	3.75	5.32 ± 0.097	8.76 ± 0.24
MKAKAILLASVLLVGCQSTGNVQQHAQSLSAAGQGEAAKFTSQARWMDDGTSIAPDGDLWAFIGDELKMGIPENDRIREQKQKYLRNKSYLHDVTLRAEPYMYWIAGQVKKRNMPMELVLLPIVESAFDPHATSGANAAGIWQIIPSTGRNYGLKQTRNYDARRDVVASTTAALNMMQRLNKMFDGDWLLTVAAYNSGEGRVMKAIKTNKARGKSTDFWSLPLPQETKQYVPKMLALSDILKNSKRYGVRLPTTDESRALARVHLSSPVEMAKVADMAGISVSKLKTFNAGVKGSTLGASGPQYVMVPKKHADQLRESLASGEIAAVQSTLVADNTPLNSRVYTVRSGDTLSSIASRLGVSTKDLQQWNKLRGSKLKPGQSLTIGAGSSAQRLANNSDSITYRVRKGDSLSSIAKRHGVNIKDVMRWNSDTANLQPGDKLTLFVKNNNMPDS [P0AEZ7]	3.87 ± 0.74	–	–	–	–	–	–	–	–	–	–	–
MKALTYHGPHHVQVENVPDPGVEQADDIILRITATAICGSDLHLYRGKIPQVKHGDIFGHEFMGEVVETGKDVKNLQKGDRVVIPFVIACGDCFFCRLQQYAACENTNAGKGAALNKKQIPAPAALFGYSHLYGGVPGGQAEYVRVPKGNVGPFKVPPLLSDDKALFLSDILPTAWQAAKNAQIQQGSSVAVYGAGPVGLLTIACARLLGAEQIFVVDHHPYRLHFAADRYGAIPINFDEDSDPAQSIIEQTAGHRGVDAVIDAVGFEAKGSTTETVLTNLKLEGSSGKALRQCIAAVRRGGIVSVPGVYAGFIHGFLFGDAFDKGLSFKMGQTHVHAWLGELLPLIEKGLLKPEEIVTHYMPFEEAARGYEIFEKREEECRKVILVPGAQSAEAAQKAVSGLVNAMPGGTI	5.38 ± 0.18	–	4.446 ± 0.011	4.83 ± 0.24	3.69 ± 2.5	–	0.447	10.2	4.75 ± 0.35	7.88 ± 0.2	4.4 ± 0.32	13.1 ± 3.3
MKAVSRVHITPHMHWDREWYFTTEESRILLVNNMEEILCRLEQDNEYKYYVLDGQTAILEDYFAVKPENKDRVKKQVEAGKLIIGPWYTQTDTTIVSAESIVRNLMYGMRDCLAFGEPMKIGYLPDSFGMSGQLPHIYNGFGITRTMFWRGCSERHGTDKTEFLWQSSDGSEVTAQVLPLGYAIGKYLPADENGLRKRLDSYFDVLEKASVTKEILLPNGHDQMPLQQNIFEVMDKLREIYPQRKFVMSRFEEVFEKIEAQRDNLATLKGEFIDGKYMRVHRTIGSTRMDIKIAHARIENKIVNLLEPLATLAWTLGFEYHHGLLEKMWKEILKNHAHDSIGCCCSDKVHREIVARFELAEDMADNLIRFYMRKIADNMPQSDADKLVLFNLMPWPREEVINTTVRLRASQFNLRDDRGQPVPYFIRHAREIDPGLIDRQIVHYGNYDPFMEFDIQINQIVPSMGYRTLYIEANQPGNVIAAKSDAEGILENAFWQIALNEDGSLQLVDKDSGVRYDRVLQIEESSDDGDEYDYSPAKEEWVITAANAKPQCDIIHEAWQSRAVIRYDMAVPLNLSERSARQSTGRVGVVLVVTLSHNSRRIDVDINLDNQADDHRLRVLVPTPFNTDSVLADTQFGSLTRPVNDSAMNNWQQEGWKEAPVPVWNMLNYVALQEGRNGMAVFSEGLREFEVIGEEKKTFAITLLRGVGLLGKEDLLLRPGRPSGIKMPVPDSQLRGLLSCRLSLLSYTGTPTAAGVAQQARAWLTPVQCYNKIPWDVMKLNKAGFNVPESYSLLKMPPVGCLISALKKAEDRQEVILRLFNPAESATCDATVAFSREVISCSETMMDEHITTEENQGSNLSGPFLPGQSRTFSYRLA	6.07	–	–	–	1.754 ± 0.011	–	–	–	–	3.4	–	–
MKCPVCHQGEMVSGIKDIPYTFRGRKTVLKGIHGLYCVHCEESIMNKEESDAFMAQVKAFRASVNAETVAPEFIVKVRKKLSLTQKEASEIFGGGVNAFSRYEKGNAQPHPSTIKLLRVLDKHPELLNEIR	4.78 ± 0.28	1.229 ± 0.0039	1.01	3.01 ± 0.085	0.847 ± 0.046	0.559 ± 0.062	1.07 ± 0.12	1.23	0.993	1.08	1.13	1.6 ± 0.84
MKCSWREGNKIQLLENGEQYYPAVFKAIGEAQERIILETFIWFEDDVGKQLHAALLAAAQRGVKAEVLLDGYGSPDLSDEFVNELTAAGVVFRYYDPRPRLFGMRTNVFRRMHRKIVVIDARIAFIGGLNYSAEHMSSYGPEAKQDYAVRLEGPIVEDILQFELENLPGQSAARRWWRRHHKAEENRQPGEAQVLLVWRDNEEHRDDIERHYLKMLTQARREVIIANAYFFPGYRFLHALRKAARRGVRIKLIIQGEPDMPIVRVGARLLYNYLVKGGVQVFEYRRRPLHGKVALMDDHWATVGSSNLDPLSLSLNLEANVIIHDRHFNQTLRDNLNGIIAADCQQVDETMLPKRTWWNLTKSVLAFHFLRHFPALVGWLPAHTPRLAQVDPPAQPTMETQDRVETENTGVKP [P0AA84]	5.09 ± 0.17	4.47 ± 0.2	3.731 ± 0.026	4.02 ± 0.65	3.99 ± 0.16	2.78 ± 0.092	5.37 ± 2.1	5.9 ± 1.9	3.75 ± 0.25	6.19 ± 0.53	5.17 ± 1.5	9.94 ± 4.7
MKDKVYKRPVSILVVIYAQDTKRVLMLQRRDDPDFWQSVTGSVEEGETAPQAAMREVKEEVTIDVVAEQLTLIDCQRTVEFEIFSHLRHRYAPGVTRNTESWFCLALPHERQIVFTEHLAYKWLDAPAAAALTKSWSNRQAIEQFVINAA [P0AFC0]	3.93	> 8	–	3.07	2.07	–	> 8	4.68 ± 0.41	2.22 ± 0.26	3.45	2.75 ± 0.2	–
MKEKTIIIVGGGQAAAMAAASLRQQGFTGELHLFSDERHLPYERPPLSKSMLLEDSPQLQQVLPANWWQENNVHLHSGVTIKTLGRDTRELVLTNGESWHWDQLFIATGAAARPLPLLDALGERCFTLRHAGDAARLREVLQPERSVVIIGAGTIGLELAASATQRRCKVTVIELAATVMGRNAPPPVQRYLLQRHQQAGVRILLNNAIEHVVDGEKVELTLQSGETLQADVVIYGIGISANEQLAREANLDTANGIVIDEACRTCDPAIFAGGDVAITRLDNGALHRCESWENANNQAQIAAAAMLGLPLPLLPPPWFWSDQYSDNLQFIGDMRGDDWLCRGNPETQKAIWFNLQNGVLIGAVTLNQGREIRPIRKWIQSGKTFDAKLLIDENIALKSL	5.74 ± 1.6	1.04	–	–	–	3.07	2.51 ± 0.54	2.78 ± 0.14	–	1.3	1.03	2.31 ± 0.41
